Data as given in patent US20260055186A1 (REPERTOIRE IMMUNE MEDICINES, published 2026).
Where two headings read alike, the source gives them in different places. Values belong to the binder of their own block, whether it stands above or below them.

Tests used:
[1] = target: T1, human CD8 on human T cells (human, UniProt P01732 22-235); experiment: cell-based or functional assay
[2] = target: T1, human CD8 on human T cells; experiment: flow cytometry, CD8+ T cells in human PBMCs, 1 h, PE anti-IL12
Procedure: Fusion proteins 02A01-IgG-IL12 (LC) and 03A01-IgG-IL12 (LC) were evaluated for their ability to specifically target IL12 to CD8⁺ T cells. […] The cells were incubated with media lacking a fusion protein as a negative control. Following 1 hour of incubation with the IL12 fusion constructs, the cells were washed once with complete RPMI medium and prepared for flow cytometry analysis. Cells were washed once with phosphate-buffered saline (PBS) containing 1% bovine serum albumin (PBS/BSA) and then stained with a 1:100 dilution of PE-conjugated anti-IL12 antibody (Clone No. C11.5; BioLegend Cat. No. 501807) in PBS/BSA. Following a 20 minute incubation at room temperature, the cells were washed once with PBS/BSA and then resuspended in PBS/BSA for analysis on a FACSCelesta using Diva software (BD Biosciences). Binding activity was quantified and represented as the mean fluorescent intensity values of IL-12 on either CD8⁺ T cells or NK cells. […] At a saturating dose, there was a 4- to 5-fold more IL-12 bound to CD8⁺ T cells than was bound to NK cells.

human CD8α/β [3] = target: T2, human CD8α/β (human, UniProt P01732 22-182; P10966 22-170); experiment: SPR, antibody captured on Protein A chip, hCD8α/β as analyte, 1:1 fit
T2 construct: Soluble heterodimer used in SPR and in the Carterra binning (there printed only as CD8α/β); also called hCD8α/β
Procedure: (§1) The binding affinities of six of the humanized anti-CD8 antibodies to human CD8 were also determined by surface plasmon resonance (SPR). Briefly, equilibrium dissociation constants for human CD8α/β were determined using a real-time SPR biosensor using a Protein A Sensor Chip (Cytiva) to capture purified anti-CD8 monoclonal antibodies at a concentration of 0.5 nM. SPR binding studies were performed in a buffer composed of Phosphate buffered saline, pH 7.2 containing 0.05% v/v Surfactant P20 (PBS-P20 buffer). Different concentrations of hCD8α/β prepared in PBS-P20 running buffer (ranging from 500 nM to 7.8 nM, 2-fold dilutions) were injected over the anti-CD8 monoclonal antibody captured surface. Association of hCD8α/β to the captured monoclonal antibody was monitored for 400 seconds and the dissociation of hCD8α/β in PBS-P20 running buffer was monitored for 600 sec. All of the binding kinetics experiments were performed at 25° C. Kinetic association (kₐ) and dissociation (kd) rate constants were determined by fitting the real-time sensorgrams to a 1:1 binding model using Scrubber 2.0c curve fitting software.

[4] = target: T1, human CD8 on human T cells; experiment: flow cytometry on human CD8+ T cells, titration
Procedure: (§2) The 24 humanized 02A01-derived anti-CD8 antibodies (excluding 02A01-VK3(D30E/N35Q)) were screened for their ability to bind human CD8 by evaluating binding to CD8+ T cells. The non-humanized parent (“02-Parent”) and the non-humanized parent comprising a heavy chain M39L liability mutation (“02-Parent-VH-M39L”) were used as controls. […] Cells were washed with 1×phosphate buffered saline (PBS) containing 1 mg/mL bovine serum albumin (PBS/BSA) and then stained with a 1:100 dilution of DyLight650-conjugated anti-human IgG H+L polyclonal antibody (ThermoFisher cat. no. Sa5-10129) in PBS/BSA. Following a 20-30 min incubation at 4° C., the cells were washed once with PBS/BSA, and then resuspended in PBS/BSA for analysis on a FACSCelesta using Diva software (BD Biosciences). The resulting data were analyzed using FlowJo. Data were quantified and reported as Max fluorescence intensity (MFI) of human IgG-Fc. […] Complete replacement of the HCDR1 (antibodies comprising VH5) eliminated binding to the CD8+ T cells.
(§3) Binding to human CD8+ T cells was tested at 7 serial 5-fold dilutions of each tested humanized 02A01 variant (from 50 nM to 3.2 pM). The resulting data were analyzed using FlowJo.

[5] = target: T1, human CD8 on human T cells; experiment: flow cytometry on human CD8+ T cells, titration, apparent KD
Procedure: as §2, §3

human CD8α/β [6] = target: T2, human CD8α/β; experiment: SPR, antibody captured on Protein A chip, hCD8α/β as analyte
Procedure: as §1

[7] = target: T3, cynomolgus monkey CD8 on cynomolgus cells (cynomolgus monkey); experiment: flow cytometry on cynomolgus CD3+ T cells, apparent KD, 4PL fit
T3 construct: whole, on cells; also called cynomolgus CD8
Procedure: (§4) The amino acid sequences of the resulting murine anti-CD8 antibodies 02A01, 03A01, 04D08, 05F10, and 11F05 are provided in Tables 1-3 herein above. These antibodies were recombinantly produced. Their binding affinity to CD8 expressed on the cell surface was measured by flow cytometry, and their respective binding affinities are reported in Table 8 and Table 9. Briefly, human or cynomolgus monkey CD3⁺ T cells were incubated with […] of anti-CD8 antibodies (from 250 nM to […]) for 30 minutes. Following the incubation, unbound antibodies were washed away, and the bound antibodies were detected with a AlexaFluor-647-labeled anti-human Fc detection antibody. The median fluorescence intensity of AlexaFluor-647 on the live cells was used to evaluate anti-CD8 antibody levels on the cell surface. Binding affinity (KD) values for anti-CD8 antibody T cell binding were determined with GraphPad Prism 7.0 using 4-Parameter logistic regression.

[8] = target: T1, human CD8 on human T cells; experiment: flow cytometry on human CD3+ T cells, apparent KD, 4PL fit
Procedure: as §4

[9] = target: T1, human CD8 on human T cells; experiment: flow cytometry on human CD8+ T cells, titration; remark: listed apart in the source
Procedure: (§5) The 16 above-referenced humanized 03A01-derived anti-CD8 antibodies were screened for their ability to bind human CD8 by evaluating binding to CD8⁺ T cells. The non-humanized parent (“03-Parent”) and the non-humanized parent comprising a heavy chain D64E liability mutation (“03-Parent-VH-D64E”) were used as controls. […] Cells were washed with 1×phosphate buffered saline (PBS) containing 1 mg/mL bovine serum albumin (PBS/BSA) and then stained with a 1:100 dilution of DyLight650-conjugated anti-human IgG H+L polyclonal antibody (ThermoFisher cat. no. Sa5-10129) in PBS/BSA. Following a 20-30 min incubation at 4° C., the cells were washed once with PBS/BSA, and then resuspended in PBS/BSA for analysis on a FACSCelesta using Diva software (BD Biosciences). The resulting data were analyzed using FlowJo. Data were quantified and reported as Max fluorescence intensity (MFI) of human IgG-Fc. […] Complete replacement of the LCDR1 (antibodies comprising VK4) eliminated binding to the CD8⁺ T cells.
(§6) The binding affinities of five of the above-referenced humanized anti-CD8 antibodies to human CD8 were determined by evaluating binding to CD8 human T cells using the method described above. Binding to human CD8+ T cells was tested at 7 serial 5-fold dilutions of each humanized 03A01 variant (from 50 nM to 3.2 pM). The resulting data were analyzed using FlowJo.

[10] = target: T1, human CD8 on human T cells; experiment: flow cytometry on human CD8+ T cells, titration, apparent KD; remark: listed apart in the source
Procedure: as §5, §6

[11] = target: T1, human CD8 on human T cells; experiment: flow cytometry, human PBMC co-cultured 1 h with the fusion protein, anti-human kappa staining on CD8 T cells (CD8 antibody binding, MFI)
Procedure: (§7) Anti-human CD8-human IL2 molecules were evaluated for their ability to specifically bind and load IL2 on CD8 T cells. Briefly, 1×10⁵ human PBMC were co-cultured with indicated CD8-IL2 (human FC receptor) molecules from one of the concentrations ranging from 0.05 pM to 0.4 nM. Following one hour incubation with molecules, PBMC were washed twice with RPMI complete medium and washed once with PBS. The washed cells were stained with anti-IL2 (MQ1-17H12), anti-human kappa (MHK-49) and lineage surface markers CD3(UCHT1), CD4(SK3) and NK(HCD56) for 20 minutes, after which the cells were washed and analyzed using a flow cytometer. The binding affinity was quantified and represented as mean fluorescence intensity (MFI).

[12] = target: T1, human CD8 on human T cells; experiment: flow cytometry, human PBMC co-cultured 1 h with the fusion protein, anti-IL2 staining gated on CD8 T cells (IL2 loading, MFI)
Procedure: as §7

[13] = target: T1, human CD8 on human T cells; experiment: cell-based or functional assay; remark: listed apart in the source
[14] = target: T1, human CD8 on human T cells; experiment: cell-based or functional assay; remark: listed apart in the source

T1 sequence (P01732 22-235): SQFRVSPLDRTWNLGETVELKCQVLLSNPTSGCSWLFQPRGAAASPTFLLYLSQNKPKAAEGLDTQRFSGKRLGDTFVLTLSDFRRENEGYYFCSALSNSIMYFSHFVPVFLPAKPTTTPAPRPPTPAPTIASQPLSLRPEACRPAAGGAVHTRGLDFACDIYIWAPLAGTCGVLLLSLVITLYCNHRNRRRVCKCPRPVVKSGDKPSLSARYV
T2 sequence (P01732 22-182, chain 1 of 2): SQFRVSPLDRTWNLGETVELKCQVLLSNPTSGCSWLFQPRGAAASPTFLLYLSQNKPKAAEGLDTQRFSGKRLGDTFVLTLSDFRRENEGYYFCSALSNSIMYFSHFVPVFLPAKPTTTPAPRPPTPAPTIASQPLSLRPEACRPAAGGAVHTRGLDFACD
T2 sequence (P10966 22-170, chain 2 of 2): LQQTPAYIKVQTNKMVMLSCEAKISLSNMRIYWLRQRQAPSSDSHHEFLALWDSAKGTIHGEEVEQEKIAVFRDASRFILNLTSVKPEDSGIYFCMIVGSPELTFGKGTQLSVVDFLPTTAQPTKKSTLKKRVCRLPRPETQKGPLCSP

- EC50 of pSTAT4 signaling in human CD8+ T cells [1]: 2.72 pM
- EC50 (read off the curve) [2]: ~0.01 nM
B1: 02A01-IgG-IL12 (LC) (other)
VH: EVQLQQSGPELVKPGASLKISCKASGYTFTDFTMHWVKQSHGKSLEWIGLVNPNNGGNIYNQNFKGKATLTVDTSSSTAYMELRSLTSEDSSVYYCGRVPLYTSHGMDYWGQGTSVTVSS
VL: DIVLTQSPAFLAVSLGQRATISCRASESVDSYDINSMHWYQQKPGQPPKLLIYRASHLQSGIPARFSGSGSRTDFTLTINFVEADDVATYYCQQSNEDPLTFGAGTKLELK
notes: 02A01 IgG with human IL-12p70 linked to the C-terminus of each light chain; human IgG1 Fc with L234A, L235A, P329G, N297A; also called 02A01 IgG IL12p70 (LC)

- Kd (human CD8α/β [3]): 9.29 nM
- Fold Change to Parental Apparent KD [4]: 1 fold
- Maximum CD8+ T cell Binding (MFI) [4]: 2900 MFI
- Kd [5]: 0.057 nM
- Fold Change to Parental Calculated KD (human CD8α/β [6]): 1 fold
- Kd [7]: 0.075 nM
- Kd [8]: 0.047 nM
B2: Murine 02A01 (antibody, V domains shown)
VH: B1 VH
VL: B1 VL
notes: Recombinantly produced IgG; also called 02-parental; 02-Parent

- EC50 of pSTAT4 signaling in human CD8+ T cells [1]: 14.7 pM
- EC50 (read off the curve) [2]: ~0.2 nM
B3: 03A01-IgG-IL12 (LC) (other)
VH: DVQFQESGPGLVKPSQSLSLTCTVTGYSITSDFAWNWIRQFPGNELEWMGYISYSGDTNYNPSLRSRISITRDTSKNQFFLQLDSVTTEDTATYYCTIRGYYTDSAFVFWGQGTLVTVSA
VL: DIQMTQSSSYLSVSLGGRVTITCKASDHINNWLAWYQQKPGNAPRLLISGATSLETGVPSRFTGSGSGLDYTLSITSLQTEDVATYYCQQYWNSPFTFGSGTKLEIK
notes: 03A01 IgG with human IL-12p70 linked to the C-terminus of each light chain; human IgG1 Fc with L234A, L235A, P329G, N297A; also called 03A01 IgG IL12p70 (LC)

- Fold Change to Parental Apparent KD [9]: 1 fold
- Kd [10]: 0.926 nM
- Kd [7]: 1.77 nM
- Kd [8]: 0.86 nM
B4: Murine 03A01 (antibody, V domains shown)
VH: B3 VH
VL: B3 VL
notes: Recombinantly produced IgG; also called 03-parental; 03-Parent

- EC50 (read off the curve) [11]: ~0.03 nM
- EC50 (read off the curve) [12]: ~0.03 nM
- EC50 of pSTAT5 activation in human CD8+ T cells [13]: 0.448 pM
- EC50 of Ki67 expression (proliferation) in human CD8+ T cells [14]: 0.0689 nM
B5: hCD8 IgG IL2 1× (HC) (other)
VH: EVQLVQSGAEVKKPGATVKISCKASGYTFTDFTMHWVQQAPGKGLEWIGLVNPNNGGNIYAEKFQGRVTLTVDTSTSTAYMELSSLRSEDTAVYYCGRVPLYTSHGMDYWGQGTLVTVSS
VL: EIVLTQSPATLSLSPGERATISCRASESVDSYDINSMHWYQQKPGQAPRLLIYRASHLQSGIPARFSGSGSRTDFTLTISSLEPEDFATYYCQQSNEDPLTFGQGTKLEIK
notes: read as humanized 02A01-VH6-VK3; One wild type human IL-2 on one heavy chain C-terminus; also called hCD8 IgG-IL2(HC)

- EC50 (read off the curve) [11]: ~0.03 nM
- EC50 (read off the curve) [12]: ~0.03 nM
- EC50 of pSTAT5 activation in human CD8+ T cells [13]: 0.246 pM
- EC50 of Ki67 expression (proliferation) in human CD8+ T cells [14]: 0.0551 nM
B6: hCD8 IgG IL2 (LC) (other)
VH: B5 VH
VL: B5 VL
notes: read as humanized 02A01-VH6-VK3; Wild type human IL-2 on each light chain C-terminus
